Target: mouse Kv4.2 channel with GFP fused to the C-terminus (Kv4.2g) (mouse) (UniProt Q9Z0V2)
Experiment: co-IP; anti-GFP IP (Pierce Classic Magnetic IP/Co-IP kit, overnight 4°C, lysis buffer with 20 mM NEM and protease inhibitors) from lysates (0.5 mg protein) of HEK cells expressing Kv4.2g + HA-KChIP2a + HA-DPP10c, with or without co-transfected SUMO2 + Ubc9; blot for α-adaptin, stripped and re-probed for Kv4.2g; OD α-adaptin ÷ OD Kv4.2g

UniProt Q9Z0V2, sequence (Q9Z0V2 whole entry, the tested form may be a part): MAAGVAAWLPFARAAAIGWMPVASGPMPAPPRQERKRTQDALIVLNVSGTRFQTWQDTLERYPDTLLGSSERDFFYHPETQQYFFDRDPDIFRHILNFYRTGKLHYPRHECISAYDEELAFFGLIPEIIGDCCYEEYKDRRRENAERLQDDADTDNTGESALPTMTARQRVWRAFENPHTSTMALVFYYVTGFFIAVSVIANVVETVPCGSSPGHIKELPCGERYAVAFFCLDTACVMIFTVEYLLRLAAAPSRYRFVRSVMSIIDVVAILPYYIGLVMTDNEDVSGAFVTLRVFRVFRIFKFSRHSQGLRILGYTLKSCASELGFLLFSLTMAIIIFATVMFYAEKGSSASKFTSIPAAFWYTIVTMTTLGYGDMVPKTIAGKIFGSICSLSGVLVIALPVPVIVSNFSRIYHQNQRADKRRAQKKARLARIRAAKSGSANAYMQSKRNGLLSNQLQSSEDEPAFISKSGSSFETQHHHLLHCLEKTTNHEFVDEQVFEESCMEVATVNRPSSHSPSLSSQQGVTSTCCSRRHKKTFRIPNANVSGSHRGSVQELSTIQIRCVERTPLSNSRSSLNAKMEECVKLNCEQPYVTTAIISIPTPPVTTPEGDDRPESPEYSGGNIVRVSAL

α-adaptin subunit of adaptor protein 2 complex (AP2) (from UniProt O95782 1-977) (natural protein)
OD α-adaptin ÷ OD Kv4.2g in the anti-GFP IP (control, without SUMO2 + Ubc9): 0.02
OD α-adaptin ÷ OD Kv4.2g in the anti-GFP IP (with co-expressed SUMO2 + Ubc9): 0.02

Source: paper PMC8593141
